The term Ki denotes the dissociation constant of the complex between target and ligand, obtained from inhibition or displacement. High values mean weaker binding, low ones tighter binding. As usually defined, the Km is the concentration of substrate that gives half-maximal velocity. As usually defined, the Vmax is the top rate of the reaction or transport when substrate is in excess.

Consider 4 compounds from article PMC6533308, “In vitro NTPase activity of highly purified Pdr5, a major yeast ABC multidrug transporter” (Scientific Reports, 2019).

In data set [1] the target is T1, Pdr5 (Saccharomyces cerevisiae, UniProt P33302).
T1 construct: full-length, N-terminal 14x His tag with protease cleavage site; homologous expression in S. cerevisiae (pdr1-3), solubilized and purified in trans-PCC-α-M by IMAC and SEC
T1 sequence (P33302 whole entry): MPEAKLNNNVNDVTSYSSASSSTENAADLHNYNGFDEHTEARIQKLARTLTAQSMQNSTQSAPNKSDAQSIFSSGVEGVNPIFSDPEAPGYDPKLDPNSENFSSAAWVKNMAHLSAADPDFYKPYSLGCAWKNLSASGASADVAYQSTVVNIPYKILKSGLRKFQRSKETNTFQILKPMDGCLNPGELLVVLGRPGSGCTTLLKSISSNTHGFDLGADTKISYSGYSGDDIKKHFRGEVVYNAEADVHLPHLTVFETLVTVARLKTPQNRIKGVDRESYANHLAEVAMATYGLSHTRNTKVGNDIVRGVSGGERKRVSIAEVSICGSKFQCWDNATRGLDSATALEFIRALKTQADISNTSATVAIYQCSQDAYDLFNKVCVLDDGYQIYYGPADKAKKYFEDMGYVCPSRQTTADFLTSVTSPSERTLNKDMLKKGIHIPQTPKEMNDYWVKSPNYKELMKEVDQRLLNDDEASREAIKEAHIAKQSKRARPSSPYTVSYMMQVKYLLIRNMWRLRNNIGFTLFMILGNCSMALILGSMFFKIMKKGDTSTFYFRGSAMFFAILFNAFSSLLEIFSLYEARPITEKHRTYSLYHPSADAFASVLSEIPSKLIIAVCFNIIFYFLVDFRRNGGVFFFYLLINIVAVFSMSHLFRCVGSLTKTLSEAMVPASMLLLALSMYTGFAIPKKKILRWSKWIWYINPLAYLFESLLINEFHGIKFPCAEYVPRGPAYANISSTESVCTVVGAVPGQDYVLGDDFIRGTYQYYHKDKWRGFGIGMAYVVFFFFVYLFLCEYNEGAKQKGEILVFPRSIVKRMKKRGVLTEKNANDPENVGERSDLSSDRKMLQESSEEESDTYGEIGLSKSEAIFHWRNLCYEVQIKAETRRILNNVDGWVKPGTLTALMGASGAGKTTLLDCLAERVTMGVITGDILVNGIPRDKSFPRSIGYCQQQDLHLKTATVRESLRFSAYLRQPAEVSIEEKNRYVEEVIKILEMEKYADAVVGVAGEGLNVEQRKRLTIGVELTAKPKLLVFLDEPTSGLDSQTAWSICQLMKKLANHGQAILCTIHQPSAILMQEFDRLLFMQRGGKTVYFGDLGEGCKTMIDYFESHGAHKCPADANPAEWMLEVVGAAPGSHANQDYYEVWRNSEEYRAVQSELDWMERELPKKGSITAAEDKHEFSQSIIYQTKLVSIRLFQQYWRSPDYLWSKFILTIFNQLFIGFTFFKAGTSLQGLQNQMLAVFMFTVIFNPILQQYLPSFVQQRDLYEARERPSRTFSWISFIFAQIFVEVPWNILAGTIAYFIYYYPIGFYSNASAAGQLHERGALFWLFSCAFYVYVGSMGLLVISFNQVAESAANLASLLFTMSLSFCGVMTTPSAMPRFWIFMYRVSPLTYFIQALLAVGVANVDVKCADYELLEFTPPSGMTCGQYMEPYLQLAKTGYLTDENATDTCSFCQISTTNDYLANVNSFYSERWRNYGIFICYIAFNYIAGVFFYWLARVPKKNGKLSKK
Nature of the data set: enzyme-coupled (PK/LDH, NADH) ATPase assay. Conditions: 4 mM ATP, 5 mM MgCl2, 300 mM Tris-glycine pH 8, 30 °C, 0.004% trans-PCC-α-M. Format: biochemical.

For data set [2], the target named is T1, Pdr5. Nature of the data set: inhibition of ATPase, colorimetric phosphate release. The class given is biochemical. The source says:
inhibition of ATPase, colorimetric phosphate release on Pdr5

In data set [3] the test system is Nc1nc2c(ncn2[C@@H]2O[C@H](COP(=O)(O)OP(=O)(O)OP(=O)(O)O)[C@@H](O)[C@H]2O)c(=O)[nH]1. The data set is described as follows: purified protein. As to conditions: 10 mM MgCl2, 300 mM Tris-glycine pH 9.5, 0.004% trans-PCC-α-M, 20 min, 0-5 mM NTP.
Data set [4] relates to Nc1ncnc2c1ncn2[C@@H]1O[C@H](COP(=O)(O)OP(=O)(O)OP(=O)(O)O)[C@@H](O)[C@H]1O. The data set is described as follows: purified protein. Conditions: 10 mM MgCl2, 300 mM Tris-glycine pH 9.5, 0.004% trans-PCC-α-M, 20 min, 0-5 mM NTP.
The subject of data set [5] is O=c1ccn([C@@H]2O[C@H](COP(=O)(O)OP(=O)(O)OP(=O)(O)O)[C@@H](O)[C@H]2O)c(=O)[nH]1. The data set is described as follows: purified protein. As to conditions: 10 mM MgCl2, 300 mM Tris-glycine pH 9.5, 0.004% trans-PCC-α-M, 20 min, 0-5 mM NTP.
The test system of data set [6] is Nc1ccn([C@@H]2O[C@H](COP(=O)(O)OP(=O)(O)OP(=O)(O)O)[C@@H](O)[C@H]2O)c(=O)n1. The data set is described as follows: purified protein. Conditions: 10 mM MgCl2, 300 mM Tris-glycine pH 9.5, 0.004% trans-PCC-α-M, 20 min, 0-5 mM NTP.

As for `Nc1ncnc2c1ncn2[C@@H]1O[C@H](COP(=O)(O)O)[C@@H](O)[C@H]1O` [AMP], at Pdr5 [1], the “maximum inhibition at 2 mM AMP” value is ~ 20%.
`CC(=O)N1CCN(c2ccc(OCC3COC(Cn4ccnc4)(c4ccc(Cl)cc4Cl)O3)cc2)CC1` (stereo not drawn) [ketoconazole]: on Pdr5 [2], the Ki came out at 22.7 ± 2.1 µM.
The same measure, in the same setting: in the case of `CCN=c1cc2oc3cc(NCC)c(C)cc3c(-c3ccccc3C(=O)OCC)c-2cc1C` [rhodamine 6 G] it was 3.2 ± 0.2 µM.
With Pdr5 (Saccharomyces cerevisiae S288C), the Michaelis-Menten constant (Km) came to 1610 ± 300 µM in data set [3], 440 ± 50 µM in data set [4], 590 ± 110 µM in data set [5] and 1620 ± 250 µM in data set [6]. In addition, the Vmax in data set [3] worked out at 0.106 µmol/min/mg; in data set [4], 0.208 µmol/min/mg; in data set [5], 0.0646 µmol/min/mg; in data set [6], 0.385 µmol/min/mg. Besides, the Vmax/Km turned out to be 100 µL/min/mg in data set [3], 500 µL/min/mg in data set [4], 100 µL/min/mg in data set [5] and 200 µL/min/mg in data set [6].
